From US20260002151, “COMPOSITIONS AND METHODS FOR THE MODIFICATION AND REGULATION OF LIVER GENE EXPRESSION” (Mammoth Biosciences, Inc., published 2026) come the findings set out here.

The labels stand for the following.
T1: CasM.265466 D220R (unidentified, D220R)
T1 chain: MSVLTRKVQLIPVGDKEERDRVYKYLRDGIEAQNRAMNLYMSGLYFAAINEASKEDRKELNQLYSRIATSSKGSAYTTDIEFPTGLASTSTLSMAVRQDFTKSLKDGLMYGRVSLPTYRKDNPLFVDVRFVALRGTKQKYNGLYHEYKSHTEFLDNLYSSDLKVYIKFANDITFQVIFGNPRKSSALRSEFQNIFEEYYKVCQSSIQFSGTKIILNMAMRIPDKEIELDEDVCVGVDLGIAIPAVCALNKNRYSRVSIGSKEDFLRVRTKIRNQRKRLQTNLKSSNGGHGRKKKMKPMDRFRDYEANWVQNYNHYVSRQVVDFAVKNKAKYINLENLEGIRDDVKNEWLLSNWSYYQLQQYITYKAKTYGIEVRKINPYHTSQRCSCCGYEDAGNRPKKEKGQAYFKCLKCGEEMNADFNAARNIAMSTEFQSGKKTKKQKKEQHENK

B1: R16929 guide ; APOC3 target of R16929 (ssRNA ; dsDNA)
RNA: ACAGCUUAUUUGGAAGCUGAAAUGUGAGGUUUAUAACACUCACAAGAAUCCUGAAAAAGGAUGCCAAACACCUCAGGGUCCAAAUCCCA
DNA 1: ACCTCAGGGTCCAAATCCCA
DNA 2: TGGGATTTGGACCCTGAGGT
B2: R16928 guide ; APOC3 target of R16928 (ssRNA ; dsDNA)
RNA: ACAGCUUAUUUGGAAGCUGAAAUGUGAGGUUUAUAACACUCACAAGAAUCCUGAAAAAGGAUGCCAAACGACCCUGAGGUCAGACCAAC
DNA 1: GACCCTGAGGTCAGACCAAC
DNA 2: GTTGGTCTGACCTCAGGGTC
B3: R16927 guide ; APOC3 target of R16927 (ssRNA ; dsDNA)
RNA: ACAGCUUAUUUGGAAGCUGAAAUGUGAGGUUUAUAACACUCACAAGAAUCCUGAAAAAGGAUGCCAAACAGUUCUGGGAUUUGGACCCU
DNA 1: AGTTCTGGGATTTGGACCCT
DNA 2: AGGGTCCAAATCCCAGAACT

In the series the target is T1, CasM.265466 D220R. Put plainly: cell_activity; AAV8 in hAPOC3 mice, vehicle 936; PAM NNTN. An excerpt: Samples were collected from mice at 2 and 4 weeks.
Levels of human APOC3 protein in liver were quantified by ELISA. CasM.265466 variant D220R and multiple APOC3 guide RNAs tested reduced human ApoC3 protein in liver at 2 weeks and 4 weeks. […] Liver and body weights were normal at 0, 2 and 4 weeks. At four weeks post injection ALT levels were reduced in mice that received CasM.265466 variant D220R or CasPhi.12 variant L26R when compared those of mice receiving vehicle only. […] The guide IDs shown in the legend from top to bottom correspond to the data points in the graphs from left to right.
For the molecule B1, the activity is 247 mg/dL serum triglycerides.

As to B2, the activity stood at 190 mg/dL serum triglycerides.

Consider B3, for which the activity is 145 mg/dL serum triglycerides.
